Source: PMC5300038

Target: 14-3-3ε (UniProt P62258)
Assay: anti-Flag IP, anti-14-3-3ε Western blot
Conditions: reference: wild type; sites S274,S299

PITPNC1 (from UniProt Q9UKF7) S274/299A
binding against the reference: weaker
